Experimental findings from patent US20140087995A1 (published 2014) are described below.

Numbered stars: 1 amine (or outer) side, 2 acyl side, 3 side chain; on linkers, the order of the positions; unused ones are H or OH. Bridge positions count the residues as written; N and C are the ends. Side chains are listed from the residue outwards. Ends that are not written are not given here. * marks the point of attachment. C20 diacid = O=C(O)CCCCCCCCCCCCCCCCCCC(=O)*; γGlu = O=C(O)[C@H](CCC(=O)[*:2])N[*:1]; AEEA = NCCOCCOCC(=O)O

As a reminder, the IC50 is the concentration that inhibits the measured activity by half.

Experiment [1] concerns the target T1, rat calcitonin receptor (rat, UniProt P32214 25-516).
T1 construct: whole, on cells; Used as membranes prepared from BHK tk'ts 13 cells transiently transfected with the rat calcitonin receptor (Assay VIII); also called rCTR; rat calcitonin (a) receptor
T1 sequence (looked up): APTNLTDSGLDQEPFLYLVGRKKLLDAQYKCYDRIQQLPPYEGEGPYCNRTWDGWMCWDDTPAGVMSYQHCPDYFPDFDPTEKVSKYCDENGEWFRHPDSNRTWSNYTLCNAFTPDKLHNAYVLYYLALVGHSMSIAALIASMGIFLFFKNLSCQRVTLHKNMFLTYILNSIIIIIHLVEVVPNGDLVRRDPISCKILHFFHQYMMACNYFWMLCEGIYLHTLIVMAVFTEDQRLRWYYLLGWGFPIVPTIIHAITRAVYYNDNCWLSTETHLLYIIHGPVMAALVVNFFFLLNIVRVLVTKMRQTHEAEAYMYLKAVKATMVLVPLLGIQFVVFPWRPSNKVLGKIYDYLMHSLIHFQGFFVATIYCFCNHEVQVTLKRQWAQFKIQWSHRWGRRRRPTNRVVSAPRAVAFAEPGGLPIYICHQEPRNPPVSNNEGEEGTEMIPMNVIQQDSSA
The experiment is described as follows: IC50 on rat CTR divided by IC50 on rat amylin receptor (Assays VIII/VI).

For experiment [2], the target named is T2, human calcitonin receptor (human, UniProt P30988 25-474).
T2 construct: whole, on cells; Used as membranes prepared from a BHK tk'ts 13 cell line stably transfected with the human calcitonin receptor (Assay VII); also called hCTR; hCT
T2 sequence (looked up): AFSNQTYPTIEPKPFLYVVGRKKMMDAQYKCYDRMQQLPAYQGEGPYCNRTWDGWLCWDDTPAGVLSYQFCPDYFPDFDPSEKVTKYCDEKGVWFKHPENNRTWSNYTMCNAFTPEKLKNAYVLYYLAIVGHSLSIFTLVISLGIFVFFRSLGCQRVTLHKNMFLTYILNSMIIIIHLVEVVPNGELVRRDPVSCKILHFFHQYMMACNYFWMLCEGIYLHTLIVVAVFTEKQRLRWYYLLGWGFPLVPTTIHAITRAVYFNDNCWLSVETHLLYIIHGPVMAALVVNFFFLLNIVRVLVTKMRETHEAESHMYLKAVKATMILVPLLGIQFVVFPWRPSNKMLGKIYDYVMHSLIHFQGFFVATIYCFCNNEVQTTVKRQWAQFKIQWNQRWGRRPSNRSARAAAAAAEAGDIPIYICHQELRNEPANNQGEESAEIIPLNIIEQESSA
The experiment is described as follows: IC50 on human CTR divided by IC50 on human amylin receptor (Assays VII/V). The gist of the method:
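Scintillation proximity competition binding on cell membranes at 35 ng/μL with SPA beads, in 50 mM Hepes pH 7.4, 1 mM CaCl2, 5 mM MgCl₂, 0.1% OA, 0.02% Tween20. Incubated 120 min at 25° C with shaking. IC₅₀ from one-site competition fit.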

Experiment [3] has as its target T1, rat calcitonin receptor. As to the kind of experiment: SPA competition with 125I-calcitonin, membranes of BHK cells with rat CTR (Assay VIII).
The target in experiment [4] is T3, rat amylin receptor (rat calcitonin receptor + rat RAMP 3) (rat, UniProt P32214 25-516; Q9JJ73 23-147).
T3 construct: whole, on cells; Used as membranes prepared from BHK tk'ts 13 cells transiently transfected with rat calcitonin receptor and rat RAMP 3 (Assay VI); also called rAmylin-R; rat amylin 3(a) receptor
T3 sequence (looked up) 1: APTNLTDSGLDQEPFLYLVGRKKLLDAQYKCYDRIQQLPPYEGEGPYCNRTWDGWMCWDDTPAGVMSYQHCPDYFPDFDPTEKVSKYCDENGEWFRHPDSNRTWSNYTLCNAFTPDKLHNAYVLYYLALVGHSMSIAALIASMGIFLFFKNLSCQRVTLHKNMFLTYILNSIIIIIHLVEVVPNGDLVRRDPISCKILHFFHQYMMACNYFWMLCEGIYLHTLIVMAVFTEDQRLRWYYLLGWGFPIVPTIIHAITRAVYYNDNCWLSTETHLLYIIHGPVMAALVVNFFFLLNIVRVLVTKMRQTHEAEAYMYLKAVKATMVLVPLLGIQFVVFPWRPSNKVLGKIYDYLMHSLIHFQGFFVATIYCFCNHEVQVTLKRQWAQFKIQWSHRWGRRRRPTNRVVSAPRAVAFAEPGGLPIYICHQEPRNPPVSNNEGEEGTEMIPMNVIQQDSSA
T3 sequence (looked up) 2: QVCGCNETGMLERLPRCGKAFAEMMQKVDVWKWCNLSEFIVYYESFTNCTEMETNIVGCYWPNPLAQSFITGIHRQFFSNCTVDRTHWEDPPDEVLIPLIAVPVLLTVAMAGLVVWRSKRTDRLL
As to the kind of experiment: SPA competition with 125I-rat amylin, membranes of BHK cells with rat CTR + rat RAMP3 (Assay VI).

B1: N^ε1-[2-[2-[2-[[(4S)-4-carboxy-4-(19-carboxynonadecanoylamino)butanoyl]amino]ethoxy]ethoxy]acetyl]-[His14,Arg17,Pro21,Pro27,His34]-h-amylin (peptide)
peptide: K([AEEA-γGlu-C20 diacid])CNTATCATQRLAHFLRHSSPNFGAIPSSTNVGHNTY-NH2
modifications: disulfide 2-7; N-terminus assumed
SMILES: CC[C@H](C)[C@H](NC(=O)[C@H](C)NC(=O)CNC(=O)[C@H](Cc1ccccc1)NC(=O)[C@H](CC(N)=O)NC(=O)[C@@H]1CCCN1C(=O)[C@H](CO)NC(=O)[C@H](CO)NC(=O)[C@H](Cc1c[nH]cn1)NC(=O)[C@H](CCCNC(=N)N)NC(=O)[C@H](CC(C)C)NC(=O)[C@H](Cc1ccccc1)NC(=O)[C@H](Cc1c[nH]cn1)NC(=O)[C@H](C)NC(=O)[C@H](CC(C)C)NC(=O)[C@H](CCCNC(=N)N)NC(=O)[C@H](CCC(N)=O)NC(=O)[C@@H](NC(=O)[C@H](C)NC(=O)[C@@H]1CSSC[C@H](NC(=O)[C@@H](N)CCCCNC(=O)COCCOCCNC(=O)CC[C@H](NC(=O)CCCCCCCCCCCCCCCCCCC(=O)O)C(=O)O)C(=O)N[C@@H](CC(N)=O)C(=O)N[C@@H]([C@@H](C)O)C(=O)N[C@@H](C)C(=O)N[C@@H]([C@@H](C)O)C(=O)N1)[C@@H](C)O)C(=O)N1CCC[C@H]1C(=O)N[C@@H](CO)C(=O)N[C@@H](CO)C(=O)N[C@H](C(=O)N[C@@H](CC(N)=O)C(=O)N[C@H](C(=O)NCC(=O)N[C@@H](Cc1c[nH]cn1)C(=O)N[C@@H](CC(N)=O)C(=O)N[C@H](C(=O)N[C@@H](Cc1ccc(O)cc1)C(N)=O)[C@@H](C)O)C(C)C)[C@@H](C)O
notes: Analogue of human amylin; also called compound 80
For the molecule B1, in experiment [1], the “Ratio rCT/rAmylin binding” value turned out to be 36.2. Besides, in experiment [2], the “Ratio hCT/hAmylin binding” value was 68.1. Moreover, the IC50 is 60.4 nM in experiment [3] and 1.67 nM in experiment [4].

B2: N^ε1-[2-[2-[2-[[(4S)-4-carboxy-4-(19-carboxynonadecanoylamino)butanoyl]amino]ethoxy]ethoxy]acetyl]-[His14,Arg17,Pro21,Pro27,Pro31]-h-amylin (peptide)
peptide: K([AEEA-γGlu-C20 diacid])CNTATCATQRLAHFLRHSSPNFGAIPSSTPVGSNTY-NH2
modifications: disulfide 2-7; N-terminus assumed
SMILES: CC[C@H](C)[C@H](NC(=O)[C@H](C)NC(=O)CNC(=O)[C@H](Cc1ccccc1)NC(=O)[C@H](CC(N)=O)NC(=O)[C@@H]1CCCN1C(=O)[C@H](CO)NC(=O)[C@H](CO)NC(=O)[C@H](Cc1c[nH]cn1)NC(=O)[C@H](CCCNC(=N)N)NC(=O)[C@H](CC(C)C)NC(=O)[C@H](Cc1ccccc1)NC(=O)[C@H](Cc1c[nH]cn1)NC(=O)[C@H](C)NC(=O)[C@H](CC(C)C)NC(=O)[C@H](CCCNC(=N)N)NC(=O)[C@H](CCC(N)=O)NC(=O)[C@@H](NC(=O)[C@H](C)NC(=O)[C@@H]1CSSC[C@H](NC(=O)[C@@H](N)CCCCNC(=O)COCCOCCNC(=O)CC[C@H](NC(=O)CCCCCCCCCCCCCCCCCCC(=O)O)C(=O)O)C(=O)N[C@@H](CC(N)=O)C(=O)N[C@@H]([C@@H](C)O)C(=O)N[C@@H](C)C(=O)N[C@@H]([C@@H](C)O)C(=O)N1)[C@@H](C)O)C(=O)N1CCC[C@H]1C(=O)N[C@@H](CO)C(=O)N[C@@H](CO)C(=O)N[C@H](C(=O)N1CCC[C@H]1C(=O)N[C@H](C(=O)NCC(=O)N[C@@H](CO)C(=O)N[C@@H](CC(N)=O)C(=O)N[C@H](C(=O)N[C@@H](Cc1ccc(O)cc1)C(N)=O)[C@@H](C)O)C(C)C)[C@@H](C)O
notes: Analogue of human amylin; also called compound 61
As for B2, the “Ratio rCT/rAmylin binding” value in experiment [1] came to 39.7. Further, in experiment [2], the “Ratio hCT/hAmylin binding” value stood at 66.7. Also, the IC50 came to 33.4 nM in experiment [3] and 0.842 nM in experiment [4].

B3: N^ε1-[2-[2-[2-[[(4S)-4-carboxy-4-(19-carboxynonadecanoylamino)butanoyl]amino]ethoxy]ethoxy]acetyl]-[His14,Arg17,Pro21,Pro27]-h-amylin (peptide)
peptide: K([AEEA-γGlu-C20 diacid])CNTATCATQRLAHFLRHSSPNFGAIPSSTNVGSNTY-NH2
modifications: disulfide 2-7; N-terminus assumed
SMILES: CC[C@H](C)[C@H](NC(=O)[C@H](C)NC(=O)CNC(=O)[C@H](Cc1ccccc1)NC(=O)[C@H](CC(N)=O)NC(=O)[C@@H]1CCCN1C(=O)[C@H](CO)NC(=O)[C@H](CO)NC(=O)[C@H](Cc1c[nH]cn1)NC(=O)[C@H](CCCNC(=N)N)NC(=O)[C@H](CC(C)C)NC(=O)[C@H](Cc1ccccc1)NC(=O)[C@H](Cc1c[nH]cn1)NC(=O)[C@H](C)NC(=O)[C@H](CC(C)C)NC(=O)[C@H](CCCNC(=N)N)NC(=O)[C@H](CCC(N)=O)NC(=O)[C@@H](NC(=O)[C@H](C)NC(=O)[C@@H]1CSSC[C@H](NC(=O)[C@@H](N)CCCCNC(=O)COCCOCCNC(=O)CC[C@H](NC(=O)CCCCCCCCCCCCCCCCCCC(=O)O)C(=O)O)C(=O)N[C@@H](CC(N)=O)C(=O)N[C@@H]([C@@H](C)O)C(=O)N[C@@H](C)C(=O)N[C@@H]([C@@H](C)O)C(=O)N1)[C@@H](C)O)C(=O)N1CCC[C@H]1C(=O)N[C@@H](CO)C(=O)N[C@@H](CO)C(=O)N[C@H](C(=O)N[C@@H](CC(N)=O)C(=O)N[C@H](C(=O)NCC(=O)N[C@@H](CO)C(=O)N[C@@H](CC(N)=O)C(=O)N[C@H](C(=O)N[C@@H](Cc1ccc(O)cc1)C(N)=O)[C@@H](C)O)C(C)C)[C@@H](C)O
notes: Analogue of human amylin; also called compound 69
Consider B3, for which the “Ratio rCT/rAmylin binding” value in experiment [1] is 104. Moreover, in experiment [2], the “Ratio hCT/hAmylin binding” value worked out at 65.3. Further, the IC50 in experiment [3] turned out to be 46.8 nM; in experiment [4] it was 0.45 nM.

B4: N^ε1-[2-[2-[2-[[(4S)-4-carboxy-4-(19-carboxynonadecanoylamino)butanoyl]amino]ethoxy]ethoxy]acetyl]-[His14,Arg17,Pro21,Pro27,Pro34]-h-amylin (peptide)
peptide: K([AEEA-γGlu-C20 diacid])CNTATCATQRLAHFLRHSSPNFGAIPSSTNVGPNTY-NH2
modifications: disulfide 2-7; N-terminus assumed
SMILES: CC[C@H](C)[C@H](NC(=O)[C@H](C)NC(=O)CNC(=O)[C@H](Cc1ccccc1)NC(=O)[C@H](CC(N)=O)NC(=O)[C@@H]1CCCN1C(=O)[C@H](CO)NC(=O)[C@H](CO)NC(=O)[C@H](Cc1c[nH]cn1)NC(=O)[C@H](CCCNC(=N)N)NC(=O)[C@H](CC(C)C)NC(=O)[C@H](Cc1ccccc1)NC(=O)[C@H](Cc1c[nH]cn1)NC(=O)[C@H](C)NC(=O)[C@H](CC(C)C)NC(=O)[C@H](CCCNC(=N)N)NC(=O)[C@H](CCC(N)=O)NC(=O)[C@@H](NC(=O)[C@H](C)NC(=O)[C@@H]1CSSC[C@H](NC(=O)[C@@H](N)CCCCNC(=O)COCCOCCNC(=O)CC[C@H](NC(=O)CCCCCCCCCCCCCCCCCCC(=O)O)C(=O)O)C(=O)N[C@@H](CC(N)=O)C(=O)N[C@@H]([C@@H](C)O)C(=O)N[C@@H](C)C(=O)N[C@@H]([C@@H](C)O)C(=O)N1)[C@@H](C)O)C(=O)N1CCC[C@H]1C(=O)N[C@@H](CO)C(=O)N[C@@H](CO)C(=O)N[C@H](C(=O)N[C@@H](CC(N)=O)C(=O)N[C@H](C(=O)NCC(=O)N1CCC[C@H]1C(=O)N[C@@H](CC(N)=O)C(=O)N[C@H](C(=O)N[C@@H](Cc1ccc(O)cc1)C(N)=O)[C@@H](C)O)C(C)C)[C@@H](C)O
notes: Analogue of human amylin; also called compound 68
B4: the “Ratio rCT/rAmylin binding” value in experiment [1] was determined as 122. The “Ratio hCT/hAmylin binding” value in experiment [2] came out at 64.4. The IC50 was 28.5 nM in experiment [3] and 0.234 nM in experiment [4].
